From paper PMC10681709, “Molecular insight into the specific enzymatic properties of TREX1 revealing the diverse functions in processing RNA and DNA/RNA hybrids”

What was measured:
[1] = target: T1, mTREX1 truncated (nuclease domain) (Mus musculus, UniProt Q91XB0 1-242); assay: fluorescence anisotropy; 20 mM EDTA; Kd stated between those of dsDNA (139.4 nM) and DNA/RNA hybrid (102.0 nM); FA: 5 nM FAM nucleic acid, 120 mM NaCl, 20 mM Tris pH 7.0, 20 mM EDTA, room temperature, 30 min; RNase T EMSA: 120 mM NaCl, 50 mM EDTA, 20 mM buffer (truncated); conditions: protein: recombinant; tags: His-tag; chain copies: 2; label: 5'-FAM on strand 1; blunt
T1 sequence: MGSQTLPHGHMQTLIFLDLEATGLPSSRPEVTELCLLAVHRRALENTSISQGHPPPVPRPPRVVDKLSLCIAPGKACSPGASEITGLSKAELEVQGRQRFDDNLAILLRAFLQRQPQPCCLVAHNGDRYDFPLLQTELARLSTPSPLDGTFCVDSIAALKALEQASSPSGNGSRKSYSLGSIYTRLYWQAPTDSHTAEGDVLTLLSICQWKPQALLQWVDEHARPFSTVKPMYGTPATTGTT

[2] = target: T1, mTREX1 truncated (nuclease domain); assay: fluorescence anisotropy; 20 mM EDTA, no Mg2+; FA: 5 nM FAM nucleic acid, 120 mM NaCl, 20 mM Tris pH 7.0, 20 mM EDTA, room temperature, 30 min; RNase T EMSA: 120 mM NaCl, 50 mM EDTA, 20 mM buffer (truncated); conditions: protein: recombinant, tags: His-tag, chain copies: 2
[3] = target: T1, mTREX1 truncated (nuclease domain); assay: fluorescence anisotropy; 20 mM EDTA; extrapolated; legend prints uM, but nM fits the stated ~500-fold drop vs ssDNA20; FA: 5 nM FAM nucleic acid, 120 mM NaCl, 20 mM Tris pH 7.0, 20 mM EDTA, room temperature, 30 min; RNase T EMSA: 120 mM NaCl, 50 mM EDTA, 20 mM buffer (truncated); conditions: protein: recombinant; tags: His-tag; chain copies: 2; label: 5'-FAM; single strand
[4] = target: T1, mTREX1 truncated (nuclease domain); assay: fluorescence anisotropy; 20 mM EDTA; not saturated, extrapolated (legend prints uM, text nM); FA: 5 nM FAM nucleic acid, 120 mM NaCl, 20 mM Tris pH 7.0, 20 mM EDTA, room temperature, 30 min; RNase T EMSA: 120 mM NaCl, 50 mM EDTA, 20 mM buffer (truncated); conditions: protein: recombinant; tags: His-tag; chain copies: 2; label: 5'-FAM; single strand

B1: dsDNA19+RNA1 (ss19D1R/ssDNA20) (mixed)
DNA 1: ACTGGACAAATACTCCGAGG
DNA 2: CCTCGGAGTATTTGTCCAGT
modifications: strand 1 3'-terminal G20 is a ribonucleotide; rest DNA
B1: binds [1].

B2: DNA/RNA hybrid 20 bp (DNA:RNA)
DNA: ACTGGACAAATACTCCGAGG
RNA: CCUCGGAGUAUUUGUCCAGU
Work on B2 yielded a Kd ([2]; blunt) of 102 ± 8 nM.

ACTGGACAAATACTCCGAGG (mixed, 3'-terminal A18 G19 G20 are ribonucleotides; positions 1-17 DNA) [ssDNA17+RNA3 (ss17D3R)] showed a Kd [3] of ~39600 nM.

Binder ACUGGACAAAUACUCCGAGG (ssRNA) [ssRNA20] has a Kd [4] of ~59000 nM.

Work on ACTGGACAAATACTCCGAGG (ssDNA) [ssDNA20] yielded a Kd ([2]; label: 5'-FAM, single strand) of 77.7 ± 6 nM.

B3: dsDNA20 (dsDNA)
DNA 1: ACTGGACAAATACTCCGAGG
DNA 2: CCTCGGAGTATTTGTCCAGT
B3 was tested, and the Kd ([2]; label: 5'-FAM on strand 1, blunt) was 139 ± 17.2 nM.
